* marks the point of attachment. Acryloyl = C=CC(=O)*
Test: Circular dichroism (CD) spectroscopy of α-helix secondary structure
Assay type: physicochemical
Conditions: 25° C.
Experimental: CD spectra were recorded using a Chirascan circular dichroism spectrometer equipped with a Peltier temperature controller (Applied Photophysics Ltd.). The CD spectra of peptides were recorded at 190-260 nm.
The temperature was 25° C. and the peptide concentration was 6 μM.
The α-helix peptide substituted with an acryloyl group prepared in Preparation Example 1 (bisAAm-p53) was dissolved in a 10% HFIP solution (based on final concentration). After mixing with […] acrylamide, a peptide-polymer conjugate was prepared through free radical induced polymerization by adding ammonium persulfate (APS) and N,N,N′,N′-tetramethylethylenediamine (TEMED). The prepared 9 μM α-helix peptide multimer was diluted with a 0.2% HIFP solution.
Before CD spectrum measurement, HFIP was completely evaporated from the samples through centrifugation.

For “Preparation Example 1: p53-derived peptide Ac-QSQQTFKNLWRLLKQN-NH2 with both lysine ε-amines (i, i+7) acryloylated; FIG. 16A (Ac-QSQQTFK(Acryloyl)NLWRLLK(Acryloyl)QN-NH2; SMILES C=CC(=O)NCCCC[C@H](NC(=O)[C@H](CC(C)C)NC(=O)[C@H](CC(C)C)NC(=O)[C@H](CCCNC(=N)N)NC(=O)[C@H](Cc1c[nH]c2ccccc12)NC(=O)[C@H](CC(C)C)NC(=O)[C@H](CC(N)=O)NC(=O)[C@H](CCCCNC(=O)C=C)NC(=O)[C@H](Cc1ccccc1)NC(=O)[C@@H](NC(=O)[C@H](CCC(N)=O)NC(=O)[C@H](CCC(N)=O)NC(=O)[C@H](CO)NC(=O)[C@H](CCC(N)=O)NC(C)=O)[C@@H](C)O)C(=O)N[C@@H](CCC(N)=O)C(=O)N[C@@H](CC(N)=O)C(N)=O)”, the “α-helix secondary structure (CD spectrum)” value (10% HFIP solution (HFIP:water=1:9, v/v), peptide 6 μM (FIG. 4)) was “stabilized” and the “α-helix secondary structure (CD spectrum)” value (distilled water, peptide 6 μM (FIG. 3)) was “not stabilized but unfolded”.
